From article PMC5993529

Legend:
[1] = target: Recombinant human VEGFR2 (human) (UniProt P35968); experiment: SPR
[2] = target: Recombinant human VEGFR1 (human) (UniProt P17948); experiment: SPR
Chain of UniProt P17948 (P17948 27-758): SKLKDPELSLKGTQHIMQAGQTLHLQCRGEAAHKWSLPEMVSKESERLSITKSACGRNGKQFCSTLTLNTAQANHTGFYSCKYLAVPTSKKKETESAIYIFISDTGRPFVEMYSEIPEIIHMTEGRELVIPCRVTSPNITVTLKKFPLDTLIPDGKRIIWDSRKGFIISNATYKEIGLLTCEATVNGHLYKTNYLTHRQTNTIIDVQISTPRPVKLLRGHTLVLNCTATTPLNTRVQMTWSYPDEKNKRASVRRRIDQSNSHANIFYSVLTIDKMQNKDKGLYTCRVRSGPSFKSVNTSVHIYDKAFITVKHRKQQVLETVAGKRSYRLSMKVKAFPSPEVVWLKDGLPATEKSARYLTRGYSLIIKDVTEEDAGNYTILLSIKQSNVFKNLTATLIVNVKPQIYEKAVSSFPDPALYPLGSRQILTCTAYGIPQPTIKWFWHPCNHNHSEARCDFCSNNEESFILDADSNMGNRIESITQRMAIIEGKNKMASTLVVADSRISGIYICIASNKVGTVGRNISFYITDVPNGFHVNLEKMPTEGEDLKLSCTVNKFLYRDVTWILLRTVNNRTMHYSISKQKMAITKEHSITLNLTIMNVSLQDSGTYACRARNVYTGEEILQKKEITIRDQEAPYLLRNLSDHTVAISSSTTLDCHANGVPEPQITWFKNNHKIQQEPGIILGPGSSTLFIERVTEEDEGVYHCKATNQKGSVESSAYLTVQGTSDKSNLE

Chain of UniProt P35968 (P35968 20-764): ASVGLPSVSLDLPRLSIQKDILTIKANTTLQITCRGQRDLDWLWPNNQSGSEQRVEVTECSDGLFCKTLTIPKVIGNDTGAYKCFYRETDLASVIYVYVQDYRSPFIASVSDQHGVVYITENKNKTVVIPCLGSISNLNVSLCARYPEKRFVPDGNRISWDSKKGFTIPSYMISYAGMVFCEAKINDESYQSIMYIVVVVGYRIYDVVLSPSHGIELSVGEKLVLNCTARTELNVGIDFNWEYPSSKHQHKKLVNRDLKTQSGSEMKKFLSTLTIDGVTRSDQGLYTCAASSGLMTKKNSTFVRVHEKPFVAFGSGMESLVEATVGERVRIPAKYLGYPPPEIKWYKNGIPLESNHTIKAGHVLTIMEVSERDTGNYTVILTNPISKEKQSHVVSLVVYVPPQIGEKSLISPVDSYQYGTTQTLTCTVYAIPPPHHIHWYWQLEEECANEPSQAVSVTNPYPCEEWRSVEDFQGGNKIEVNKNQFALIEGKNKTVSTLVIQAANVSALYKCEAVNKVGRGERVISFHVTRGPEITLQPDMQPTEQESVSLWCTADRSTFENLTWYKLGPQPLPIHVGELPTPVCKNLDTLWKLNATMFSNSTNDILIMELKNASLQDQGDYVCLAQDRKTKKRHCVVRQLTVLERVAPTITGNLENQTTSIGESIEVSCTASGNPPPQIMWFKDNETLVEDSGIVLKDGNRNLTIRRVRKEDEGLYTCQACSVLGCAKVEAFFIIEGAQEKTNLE

Kd [1]: 0.398 nM
Kd [2]: 0.0231 nM
Substance: Recombinant human VEGFA (from UniProt P15692 1-395) (ligand)
